Results on 20 sequences are retold here after the DeepSol protein solubility set.

The series is described as follows: soluble on expression in E. coli; label from the status in PepcDB or PDB records.
In the case of “MSLASVIADVPGMKTIVQVLTFRDYQYDDGWHQANIEVPAISGLEESGLGQALNQKYLEENKKLYEDFMADVEEMKALGDGHMGVDSGYEIKTDNERLLAIGRYVVNTVGSSSTVFKYDTIDKVDQVLITLPSLFKDDSYVQVISDYIVNEMKAKMKADSNLIYWVVTDENKDEVNYFEPFTQIKPEQSFYINSDYKLVISFDKYEVGPGVMGMQEFVIPTEVIADRLVSDEYVREGHHHHHH”, the “soluble on expression in E. coli” value is given as “soluble”.
As for “GAPLKAVSAFAPPLHTQDFNLYSGEVHAHFTDYEAGMAFARQENKPVLLDFSGHGCVNCRKMENAVWIDPTVKSMLEKDYVLITLMVDEKKPLAEPLTIVFDGKEKTLRTVGDKWSYLQSHKFGANAQPFYVAIDHEGKPLSASYSYNEDVPLYVDFLKGGLQEFKKRKNK”, the entry is “not soluble”.
As to “MNDYAAMPSEDREVGALSLPPHSMEAEQSVLGGLMLENPAWDRIADVVSGEDFYRHEHRLIFRSIAKLINESRPADVITVQEDLQRNEELEAAGGFEYLITLAQNTPSAANIRRYAEIVRERSIMRQLAEVGTEIARSAYNPQGRDAGQLLDEAENKVFQIAESTAKSKQGFLEMPDLLKEVVQRIDMLYSRDNPDEVTGVPTGFIDLDKKTSGLQPGDLIIVAGRPSMGKTAFSINIAEHVAVEGRLPVAVFSMEMGGAQLVMRMLGSVGRLDQSVLKTGRLEDEHWGRLNEAVVKLSDAPVYIDETPGLTALELRARARRLARQFNNKLGLIVIDYLQLMAGSGRSDNRASELGEISRSLKALAKELQVPIIALSQLSRTVESRTDKRPMMSDLRESGAIEQDADLIMFMYRDEYYNQDSPMKGLAECIIGKHRNGPVGKIFLTWTGQFTKFDNAAYIPEEAKIED”, the “soluble on expression in E. coli” value is reported as “not soluble”.
As to “MAHHHHHHMNVFDCTLCVATTISQFLVDEVMKQVSLYGGFRHVVRCHGNPQEDFMDVKQSGEPIVLLIANQAGREALKFLCDDYHLPKEQRRVLWIHSISSGLDSYKLNELVKELQDIPLTNARGCYSSILAEHVMYSMLYFYRQTWRSLASRAEHKWDPFLMVELRGRKVGIIGYGDIGRASAKLLSAFGMEVTGVKRSASTKEVDEYGVRLVHGDAERERVLRESDFVVNILPGTEETKRLFNKELFSMMKPSAVYINIGRGITQNEDDLACALRDGVIRGASVDVFEREPLPAESPLWDISDDKILLTYHNAVLSDDFCKKAIDCFMLLARDFGSDGFASNVIQIDKFYCG”, the “soluble on expression in E. coli” value is on record as “soluble”.
To “MAIINGSQYIERVDNLQSNVWINGERVVGKLSEHPAFAGAIRSQARLYDAQHDPTKQPVLTFRTSTGELAGAAFLRPATKEDLEHRRLAFQEWARLTAGMMGRSPDYMNHRRDGARLGR” belongs “not soluble”; to “MAHHHHHHMGVKFIVEHMDDLEEWCILEYMHICEIVKDENIIFTKFKGNFKDISKSHEPKCYEKSIGDLKDEFGWNKICLLDMKAKDVLTCKDKNEIDFLLFGGILGNVPSNDRTSELRKFEFPISRNLGSVQMTTNTAVLVCHIILNDQVELENIPFVDNPDIVLKNNKESMMLPFRFVSKYYYTKCESDKNVPILPKNFKDYLIKLGDQQYNDLDSFF”, “soluble”; to “EAIGASVIPMSAGNTEKQIMIMQDYKTTALVCTPSYAITIADRMEKMGVDPKSLSLKVGLFGAEPWSEAMRKEIENRLFVSATDNYGLSEIIGPGVAGDCEYKCGMHIS”, “not soluble”.
On to “MGKTKPVLQCTLCGALVDSGNGLPMHEETYAVLRVEAMPRQWRQALENVMAKTIASPPPSAMPGTDPLEAVWFTPWRTNSWQPNTVDCRQVLNGTLDELRVLSQEVAALAATQGFSACVEFV”, for which the “soluble on expression in E. coli” value is on record as “not soluble”.
To “MSKLDTIFEVVISRDKMEATLKQHEPFPEDHPVTKDELLSFMKEHGVVFGVKESVIDQVVKSEKGLTSSVKVAEGLQPQNGKHGYLQPIQHEEEERDVHSISAMNLRDVLSIPEVKQGQVIGKKIPATLGEDGMNVLGEPIKAKPGREFVLRPGKNSTVDEANGTLVAAVDGQMSVDKRTIHVYPVYEVPGDLTMKHGNISFIGNVIIRGHVPDGFVVKAGGDIRVFGTVEGATLEAGGSIFVGAGIVGQNRGCIRAEGGLHTTFINQAKVEVGGDIEVVQSILHSTCTAGGKIICTRGKGNIVGGALSAEDHIYAKEIGNSMHTKTSLYIGAKEKWVTKEKQLAKEYKTTEEELKKLSLLLQKFQELEKENGLTANGRVQRLRVKNTLVQVKEKHEQIKEQLEDVQENLTLNQAGSIVVEQTLYPNVSAHFGKYRRKIVSNHSNVKLSLVDQEIQLSSRLEHHHHHH” belongs “soluble”.
To “MGSDKIHHHHHHMQNTDIVVIGSGIGGLSCAALLARYGFDVIVCESHSIAGGAAHGFERNGFKFDSGPSLYSGLSYSPSANPLRQVLDAIGSELPCVTYDTWGCCLPEGDFDTAVGAEQFCEVLMKFCGDDAVAEWQELQRVMEPFARAATSIPPAALRFDFGAARTVGPFVPSLTKNVANIIKLTGPFSRIMDGVVKDSFTRNWLNLLCFLLSGLPADGTSAAEVAFMFADWYRPDAILEYPIGGSSALVDSLVQGLERHGGKLMLGAHVEEVLVEGNRAVGVRLRDRSEIRAKLAVISNASVWDTLKLLPEKAIPKQYRSKRQATPECDSFMHLHLGIDAQGLQSNLRCHYIVVNNWELGVTAPQNVVVISIPSVLDPSLAPAGKHVIHVYTPGNEPYSFWQGMDRRSQEYAEQKRSRAEVMWQALERIIPDIRSRCEVTLVGTPLTHERYLRRHQGSYGPAIQAGSGMFPSPSTPLPGLMCCGDSTFPGIGLPAVAASGLIAANTLAPVNKHLAMLQDINCI” belongs “not soluble”; to “MKLLLLIFVPFVTCGLTCMDFMIDCPRIVYYCDETYVQNQCQFSCGICKQDPGVCGDTYFDCDMYDTKCNSPSFQRQCAGTCGLCPGACEDIWDGCSHFLAPCSDDIKSLCPIKCGLCNSTTTPMILTTITPVDPRCVDAGNQCANYSPPCSDDVKIFCPATCGSCSNGTTGVPLVLTTLTPELTTVTVEPITSTLKPTTTTITPTTTTKLPTTTTKKLPPTTPKPPCKDSSPNCAGWAKNGFCTNTFYPPEKRKEYCGKTCRMC”, “not soluble”; to “MLPPYNYMDNGTLKGISIDLLEAITEKMGKKVTREEIHLVSWTEGYQAALTRNNTVLFVTARTPEREQSFKWVGPIYSDKYVLFAKRDPGVTIDGPEDLKEYRIGVISDDVAAQQLLNIGVNQSQLEHHHHHH”, “not soluble”.
To “MGSDKIHHHHHHMGRMKNTFPFVITISRQLGAGGAYIGQQLAKKLSIFYADREIIGQAARKLSVMEEELEPRDEKSLSLWQFLIQSCACTPETSYIPPQITVPSDRELFKTESEIITRIAQEHSTVIIGRCGSYILREHPNHVSMFLHGDLSFRKSRIQKIYHVSENVAEKMIVQSDEERSQYHYKFTGKDWADARQYGLSVNTGRTGVDKTVDCILTYLELIKVRDCIP” belongs “not soluble”; to “GMSTDTCIKRPTRSELVDRFQKKIRAGEPIIGGGAGTGLSAKSEEAGDIDLIVIYNSGRYRMAGRGSLAGLLAYGNANQIVVDMAREVLPVVRHTPVLAGVNGTDPFMVMSTFLRELKEIGFAGVQNFPTVGLIDGLFRQNLEETGMSYAQEVEMIAEAHKLDLLTTPYVFSPEDAVAMAKAGADILVCHMGLTTGGAIGARSGKSMDDCVSLINECIEAARTIRDDIIILSHGGPIANPEDARFILDSCQGCHGFYGASSMERLPAEEAIRSQTLAFKAIRRQPA”, “soluble”.
For the sequence “MSLGPTSKAISRNVRSVKRPRRAPRPVVSTQAMNKLSNVTLSAEQEKLRERVLSFMRSNLSQYKSDWKHPAMFVIQGDAGTGKSVILNSLFNEIQKLSQFSPSSEDILHGTHNYLVVNHPEMLKLYIRISDSFKYISKSSLERPTSLINNLQKRKVMADVVIVDEAHLLATSKDAFKRFYGENHLKDLMSLCKVLVLVYDDKQALRMGSYWDEGSNNGATLKDFYNEIPPKSRDWYTLKQQFRVAAPQNVLNWIDQISVAGKIPPIESVLSKGNADCADDKIKNFDFKIWDDCGAMYEAIKEKDRQYGQCRMLSTYDFPYRLDGKDYYVECGDNFKVRWDRYTPREVTPWSERCDTIDEVGSVYTIQGFDLNYAGVILGRSIGYDAANDCIKLRPELYDDRAGFTKKKNIHNAEDVKQKIIMNSINVLLTRGVRGLYVYAYDPELRERLLRPSKEGHHHHHH”, the “soluble on expression in E. coli” value is “soluble”.
With “MATCGRRDDILDLLKSLEQQTYKNFELIVVDQNDTPISDLFDEYKDKFSINYIYTPIKGLSRARNAGLKVADGDFIAFPDDDCIYEKNVLESILETFNSNKDVHFISTNTTNVEGTGSLIHAPNTDIILNNKYGFMGPSFTLFFTKQFVQDVGTFDEDLGVGSGTIYGAGEETDFVLRGMKQNYTGLFRKDLFVYHPVKEEIINEQSLKRAISYAGGFGRIIRLHYGFPYFLRAVAAATFRMTQNISNDKRKFHANRLRGIVRGYLK”, the “soluble on expression in E. coli” value was “not soluble”.
To “MGSDKIHHHHHHMKRPGFIERHHLWTEIQKEASEKIKTIVKEQDLLLIRTAWSDQHGIVRSKSLLPQAFFSALENGMQISTGTFLLDTGGAIVFNPFVPGGSLDMPLMTGAPNLVAVPDPDTFKIVPWAKRTGFILCDEYFQNGQPMPFSSRGILRQSLIDLHQRGLEHIVGLEVEWYLAKLEDPMLAIANVGSSGKPGEPAKVSAVDHSFQYLLESHNPEIQDLLGLLAENLVEMKLPLRSVENEGGVGQFEFTFDPIPALQAADTMMIFRMATKQICRQQGYIASFMCRPGLQGSSSNGWHLHQSLVDLTTGENAFMSANSQTLTSDLAKHFVGGLLKHANAASVFTTPTINGYKRFRPYSLAPDRAGWGLENRGAMIRLQGGFDDPSTHIENRVGEPAANPYLYMASQLISGLDGVDCKLDPGSPTEEPYTTENPILPKSLSEAISYLSQSELFPQKMGQQFINFIIKMKESEINRFLQSVADQPPEEYLKQVTNWEQREYFELF” belongs “not soluble”; to “MVVLYNECLKNHAVSLGGHALDGCGEFTPKSTTILTDPPSLRCDACGCHRNFHRRSPSDGFSQHRSPPSPLQLQPLAPVPNLLLSLSSGFFGPSDQEVKNKFTVERDVRKTAMIKKHKRTKFTAEQKVKMRGFAERAGWKINGWDEKWVREFCSEVGIERKVLKVWIHNNKYFNNGRSRDTTSSMSLNLKL”, “soluble”; to “MSTRLCEPSLRDDGAQRGTPASHGKWCDTGAFKLDETPSPVVANVSSTSDASFQFNRTPSPGKHQNHAADRSMWSLDDFVIIRKLDEGRFGKVYLAREKQSKCAVVLKCISKDMIRFHSLAHQLQREVELQEYAGRYHKNVLRLFAYFWDDVRIVLVLEYADSGTLQDLLDCYREKEQRSSLPDDKVRTILLQLLSALAFLHERDIIHRDVKPDNILFHGEKLLLADFSWAVRVNNSDPRYCRRHTVCGTLDYLAPEQVLKRGCTTKADLWAVGVVAYRMLCGFLPFEMLDARDVCSCIASGAIRYPSQLSPTARHFLQGLLRVDEALRFSCQEALNHPFMRGDCNCRISNRYIESKHRARAEEPVLQHQGSFDTTKNGTRWIQQKKESWCCSRAPTLNVPEPVHHTGTNCVANHSHNHKDMDKSTTLSCPSASDIVRVRATTERVRCPVDDYSGTSASLITISPLRSTECMQSLSNVSTPSIVSQTHSEWLHSASPISHTPVVAAAATSKCSRDDVGTSSYGVSYSGIRLHNSASDGSGTTTGQHHAQLGTSTHSSFAFAPPTSARYRRDISGYHRINGRGSSPSDHEEYEVASCALRLCFDDEDDADNNCSGALHAAASNRPKTLKSGVMMNGTAPPSHHKGSSYDVR”, “not soluble”.
As for “MTNLTNYHSHCLYCDGRANMEDFIRFAISEGFSSYGISSHAPLPFSTAWTMEWDRMDDYLSEFARLKEKYADKIELAIGLEIDYLNEESHPAIPRFQELPLDYRIGSVHMLYSPQGKVVDIDTPADIFRQLIDAHFEGDLDYVVHLYYKNLLRMVELGGFDILGHADKMHYNASCYRPGLLDEPWYDALVRDYFAEIARHGYIVEINTKSYHDLGTFYPNERYFPLLKELGIRVQVNSDAHYPERINNSRAEALAALKKVGFDTVVEWHGGQWKDMPLLQLEHHHHHH”, the entry is “soluble”.
